Data from IntAct's records for PubMed 20924357.

B1: Cryptic beta-glucoside bgl operon antiterminator (Escherichia coli (strain K12)), P11989 (parent)
chain: MNMQITKILNNNVVVVIDDQQREKVVMGRGIGFQKRAGERINSSGIEKEYALSSHELNGRLSELLSHIPLEVMATCDRIISLAQERLGKLQDSIYISLTDHCQFAIKRFQQNVLLPNPLLWDIQRLYPKEFQLGEEALTIIDKRLGVQLPKDEVGFIAMHLVSAQMSGNMEDVAGVTQLMREMLQLIKFQFSLNYQEESLSYQRLVTHLKFLSWRILEHASINDSDESLQQAVKQNYPQAWQCAERIAIFIGLQYQRKISPAEIMFLAINIERVRKEH

Variants of: B1
Settings: with pthp_ecoli ptsH

effect of a mutation on the interaction	Variant
increasing interaction	D100N

Variants of: B1
Settings: with pthp_ecoli ptsH
Remark: another data set of the same source

effect of a mutation on the interaction	Variant
increasing interaction	H208R

Variants of: B1
Settings: with pt1_ecoli ptsI

effect of a mutation on the interaction	Variant
increasing interaction	H208R

Variants of: B1
Settings: with pt1_ecoli ptsI
Remark: another data set of the same source

effect of a mutation on the interaction	Variant
decreasing interaction	H208R

Variants of: B1
Settings: with pthp_ecoli ptsH
Remark: another data set of the same source

effect of a mutation on the interaction	Variant
increasing interaction	H160Y
